Where a chain is given by its changes, count along the chain named. Numbers in names are those of the source. Values belong to the binder of their own block, whether it stands above or below them.
Columns and labels:
[1] = target: T1, ubiquitin (unlabeled, wild-type) (human, UniProt P0CG48 1-76); assay: NMR titration
[2] = target: T1, ubiquitin (unlabeled, wild-type); assay: BLI

B1: 15N-labeled UBE2S UBC E139R/E143R (residues 1-156) (domain or fragment)
chain: MNSNVENLPPHIIRLVYKEVTTLTADPPDGIKVFPNEEDLTDLQVTIEGPEGTPYAGGLFRMKLLLGKDFPASPPKGYFLTKIFHPNVGANGEICVNVLKRDWTAELGIRHVLLTIKCLLIHPNPESALNEEAGRLLLRNYERYAARARLLTEIHG
binding result [1]: binds

B4: GST-UBE2R2 wild-type (enzyme)
chain: MAQQQMTSSQKALMLELKSLQEEPVEGFRITLVDESDLYNWEVAIFGPPNTLYEGGYFKAHIKFPIDYPYSPPTFRFLTKMWHPNIYENGDVCISILHPPVDDPQSGELPSERWNPTQNVRTILLSVISLLNEPNTFSPANVDASVMFRKWRDSKGKDKEYAEIIRKQVSATKAEAEKDGVKVPTTLAEYCIKTKVPSNDNSSDLLYDDLYDDDIDDEDEEEEDADCYDDDDSGNEES
Kd [2]: 650 µM

B5: GST-UBE2R2 R149E (enzyme)
chain: B4 chain with R149E
Kd [2]: > 4000 µM

Results, then the binder that gave them:

binding result [1]: binds
B2: 15N-labeled UBE2S UBC E139R (residues 1-156) (domain or fragment)
chain: B1 chain with R143E

binding result [1]: binds
B3: 15N-labeled UBE2S UBC E143R (residues 1-156) (domain or fragment)
chain: B1 chain with R139E

From article PMC8804933 (The EMBO Journal, 2021)
